Here are results for one molecule from PMC13132546, “The FAM53C/DYRK1A axis regulates the G1/S transition of the cell cycle” (eLife, 2026).

The target in this assay is T1, DYRK1A (recombinant, N-terminally biotinylated) (UniProt Q13627 1-763, biotin on the N-terminus (sortase labelling with a synthetic biotin-LPETGG peptide onto the N-terminal glycine left after TEV cleavage)).
T1 construct: DYRK1A; also called Dual-specificity Tyrosine Phosphorylation-regulated Kinase 1 A; biotinylated DYRK1A; not shown: GST, N-terminal, cleaved; biotin-LPETGG peptide (sortase-ligated), N-terminal, kept
Kind of assay: BLI; Octet-RED96e; 200 nM biotinylated DYRK1A loaded on streptavidin biosensor tips, dipped into FAM53C analyte at varied concentrations; 25 mM Tris pH 8.0, 150 mM NaCl, 1 mM DTT, 2 mg/mL BSA, 0.2% Tween; double reference-subtracted; rates from a 1:1 model, KD from steady-state analysis. The conditions noted are these: both partners purified.

B1: FAM53C (recombinant) (natural protein, UniProt Q9NYF3 1-392, looked up)
chain: MITLITEQLQKQTLDELKCTRFSISLPLPDHADISNCGNSFQLVSEGASWRGLPHCSCAEFQDSLNFSYHPSGLSLHLRPPSRGNSPKEQPFSQVLRPEPPDPEKLPVPPAPPSKRHCRSLSVPVDLSRWQPVWRPAPSKLWTPIKHRGSGGGGGPQVPHQSPPKRVSSLRFLQAPSASSQCAPAHRPYSPPFFSLALAQDSSRPCAASPQSGSWESDAESLSPCPPQRRFSLSPSLGPQASRFLPSARSSPASSPELPWRPRGLRNLPRSRSQPCDLDARKTGVKRRHEEDPRRLRPSLDFDKMNQKPYSGGLCLQETAREGSSISPPWFMACSPPPLSASCSPTGGSSQVLSESEEEEEGAVRWGRQALSKRTLCQRDFGDLDLNLIEEN
notes: FAM53C; also called C5ORF6; source: E. coli BL21 (DE3), purified (Ni-NTA, TEV cleavage, Q Sepharose, Superdex 75)
One may read the Kd as the concentration at which binding is half-saturated. Take B1: the equilibrium dissociation constant (Kd) was determined as 3.3 ± 0.5 mM.
